T1: EsCas13d, nuclease-dead (Eubacterium siraeum, UniProt B0MS50, R295A;H300A;R849A;H854A)
T1 sequence: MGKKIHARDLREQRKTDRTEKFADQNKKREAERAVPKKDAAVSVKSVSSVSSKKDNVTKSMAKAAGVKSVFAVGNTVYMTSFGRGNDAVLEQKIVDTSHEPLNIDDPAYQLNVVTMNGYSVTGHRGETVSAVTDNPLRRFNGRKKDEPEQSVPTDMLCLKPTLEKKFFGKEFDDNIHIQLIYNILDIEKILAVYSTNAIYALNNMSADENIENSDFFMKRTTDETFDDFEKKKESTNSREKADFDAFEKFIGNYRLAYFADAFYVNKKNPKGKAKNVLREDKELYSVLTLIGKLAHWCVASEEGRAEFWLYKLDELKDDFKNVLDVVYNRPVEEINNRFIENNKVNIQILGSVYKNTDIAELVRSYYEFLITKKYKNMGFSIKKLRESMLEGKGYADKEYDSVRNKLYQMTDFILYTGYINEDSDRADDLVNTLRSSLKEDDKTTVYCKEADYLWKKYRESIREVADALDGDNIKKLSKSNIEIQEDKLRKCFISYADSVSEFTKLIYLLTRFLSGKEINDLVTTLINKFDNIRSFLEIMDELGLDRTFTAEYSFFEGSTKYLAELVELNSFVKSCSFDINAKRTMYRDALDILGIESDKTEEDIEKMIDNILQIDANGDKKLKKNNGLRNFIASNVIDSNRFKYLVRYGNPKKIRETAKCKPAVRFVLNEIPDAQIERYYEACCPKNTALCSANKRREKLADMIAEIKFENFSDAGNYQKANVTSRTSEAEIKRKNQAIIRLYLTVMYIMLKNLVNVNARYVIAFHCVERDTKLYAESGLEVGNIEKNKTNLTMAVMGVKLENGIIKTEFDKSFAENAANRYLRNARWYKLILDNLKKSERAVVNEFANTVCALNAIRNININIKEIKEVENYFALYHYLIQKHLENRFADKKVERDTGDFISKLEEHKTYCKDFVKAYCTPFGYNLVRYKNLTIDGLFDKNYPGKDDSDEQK


Target: T1, EsCas13d, nuclease-dead
Assay: crRNA (strand 1, pre-loaded); Mg2+; 40 mM Tris-HCl pH 7.5, 150 mM NaCl, 6 mM MgCl2, 1 mM DTT, 0.1% Tween-20, 0.2 mg/ml BSA; 25 C; 10 min per concentration, then washed
Conditions: tags: His6-TwinStrep-SUMO cleaved; N-terminal SNAP kept (SNAP-Surface 488); label: 3' end held by stalled T7 RNA polymerase

Row | Binder | Kd
1 | target 3 del1,del4 (mixed) RNA 1: CACCCGUGCAAAAUUGCAGGGGUCUAAAACGACCUGAAUAUUUCAGAUCAAA RNA 2: GGGAAUGGAUCCACAUCUACGAAUUCGUUUUUGAUCUGAAAUAUUCAGUUGCAGAUCGGAAGAGCACACGU | 18 ± 2.5 nM
2 | target 3 insA 3' of 4,insA 3' of 2 (mixed) RNA 1: CACCCGUGCAAAAUUGCAGGGGUCUAAAACGACCUGAAUAUUUCAGAUCAAA RNA 2: GGGAAUGGAUCCACAUCUACGAAUUCGUUUUUGAUCUGAAAUAUUCAGAGUACUGCAGAUCGGAAGAGCACACGU | 33 ± 7 nM
3 | target 3 insA 3' of 6,insG 3' of 5 (mixed) RNA 1: CACCCGUGCAAAAUUGCAGGGGUCUAAAACGACCUGAAUAUUUCAGAUCAAA RNA 2: GGGAAUGGAUCCACAUCUACGAAUUCGUUUUUGAUCUGAAAUAUUCAAGGGUCUGCAGAUCGGAAGAGCACACGU | 5.51 ± 0.325 nM
4 | target 3 insU 3' of 13,insU 3' of 5 (mixed) RNA 1: CACCCGUGCAAAAUUGCAGGGGUCUAAAACGACCUGAAUAUUUCAGAUCAAA RNA 2: GGGAAUGGAUCCACAUCUACGAAUUCGUUUUUGAUCUGAUAAUAUUCAUGGUCUGCAGAUCGGAAGAGCACACGU | 106 ± 45.5 nM
5 | target 3 insA 3' of 10,insC 3' of 4 (mixed) RNA 1: CACCCGUGCAAAAUUGCAGGGGUCUAAAACGACCUGAAUAUUUCAGAUCAAA RNA 2: GGGAAUGGAUCCACAUCUACGAAUUCGUUUUUGAUCUGAAAUAAUUCAGCGUCUGCAGAUCGGAAGAGCACACGU | 90 ± 32 nM
6 | target 3 insU 3' of 4 (mixed) RNA 1: CACCCGUGCAAAAUUGCAGGGGUCUAAAACGACCUGAAUAUUUCAGAUCAAA RNA 2: GGGAAUGGAUCCACAUCUACGAAUUCGUUUUUGAUCUGAAAUAUUCAGUGUCUGCAGAUCGGAAGAGCACACGU | 4.39 ± 0.415 nM
7 | target 3 insC 3' of 22 (mixed) RNA 1: CACCCGUGCAAAAUUGCAGGGGUCUAAAACGACCUGAAUAUUUCAGAUCAAA RNA 2: GGGAAUGGAUCCACAUCUACGAAUUCGUUUCUUGAUCUGAAAUAUUCAGGUCUGCAGAUCGGAAGAGCACACGU | 21.4 ± 2.3 nM
8 | target 3 insU 3' of 16,insA 3' of 2 (mixed) RNA 1: CACCCGUGCAAAAUUGCAGGGGUCUAAAACGACCUGAAUAUUUCAGAUCAAA RNA 2: GGGAAUGGAUCCACAUCUACGAAUUCGUUUUUGAUCUUGAAAUAUUCAGGUACUGCAGAUCGGAAGAGCACACGU | 16.1 ± 1.9 nM
9 | target 3 insA 3' of 8,insA 3' of 6 (mixed) RNA 1: CACCCGUGCAAAAUUGCAGGGGUCUAAAACGACCUGAAUAUUUCAGAUCAAA RNA 2: GGGAAUGGAUCCACAUCUACGAAUUCGUUUUUGAUCUGAAAUAUAUCAAGGUCUGCAGAUCGGAAGAGCACACGU | 58.5 ± 6.5 nM
10 | target 3 U20C,U22A (mixed) RNA 1: CACCCGUGCAAAAUUGCAGGGGUCUAAAACGACCUGAAUAUUUCAGAUCAAA RNA 2: GGGAAUGGAUCCACAUCUACGAAUUCGUUAUCGAUCUGAAAUAUUCAGGUCUGCAGAUCGGAAGAGCACACGU | 55 ± 12 nM
11 | target 3 insA 3' of 6 (mixed) RNA 1: CACCCGUGCAAAAUUGCAGGGGUCUAAAACGACCUGAAUAUUUCAGAUCAAA RNA 2: GGGAAUGGAUCCACAUCUACGAAUUCGUUUUUGAUCUGAAAUAUUCAAGGUCUGCAGAUCGGAAGAGCACACGU | 7.8 ± 0.65 nM
12 | target 3 insG 3' of 5,insG 3' of 5 (mixed) RNA 1: CACCCGUGCAAAAUUGCAGGGGUCUAAAACGACCUGAAUAUUUCAGAUCAAA RNA 2: GGGAAUGGAUCCACAUCUACGAAUUCGUUUUUGAUCUGAAAUAUUCAGGGGUCUGCAGAUCGGAAGAGCACACGU | 25.3 ± 5.25 nM
13 | target 1 C2G,A18C (mixed) RNA 1: CACCCGUGCAAAAAUGCAGGGGUCUAAAACUGAGCGGAUAACCUCUCUAUGG RNA 2: GGGAAUGGAUCCACAUCUACGAAUUCGUACCAUCGAGAGGUUAUCCGCUGACCGAGAUCGGAAGAGCACACGU | 44 ± 4 nM
